T1: human BCMA (human, UniProt Q02223 1-184)
T1 construct: whole, on cells; also called hBCMA; TNFRSF17
T1 sequence (looked up): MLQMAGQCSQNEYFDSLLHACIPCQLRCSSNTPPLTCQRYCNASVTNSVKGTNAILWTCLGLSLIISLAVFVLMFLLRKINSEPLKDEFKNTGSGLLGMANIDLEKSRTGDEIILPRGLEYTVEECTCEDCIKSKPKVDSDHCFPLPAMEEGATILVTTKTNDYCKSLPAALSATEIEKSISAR

B1: PR002892 (bispecific antibody, human IgG1, lambda, L234A L235A)
light: QAVVTQEPSLTVSPGGTVTLTCRSSTGAVTTSNYANWVQQKPGQAPRGLIGGTNKRAPWTPARFSGSLLGDKAALTLLGAQPEDEAEYFCALWYSNLWVFGGGTKLTVLGQPKAAPSVTLFPPSSEELQANKATLVCLISDFYPGAVTVAWKADSSPVKAGVETTTPSKQSNNKYAASSYLSLTPEQWKSHRSYSCQVTHEGSTVEKTVAPTECS
heavy: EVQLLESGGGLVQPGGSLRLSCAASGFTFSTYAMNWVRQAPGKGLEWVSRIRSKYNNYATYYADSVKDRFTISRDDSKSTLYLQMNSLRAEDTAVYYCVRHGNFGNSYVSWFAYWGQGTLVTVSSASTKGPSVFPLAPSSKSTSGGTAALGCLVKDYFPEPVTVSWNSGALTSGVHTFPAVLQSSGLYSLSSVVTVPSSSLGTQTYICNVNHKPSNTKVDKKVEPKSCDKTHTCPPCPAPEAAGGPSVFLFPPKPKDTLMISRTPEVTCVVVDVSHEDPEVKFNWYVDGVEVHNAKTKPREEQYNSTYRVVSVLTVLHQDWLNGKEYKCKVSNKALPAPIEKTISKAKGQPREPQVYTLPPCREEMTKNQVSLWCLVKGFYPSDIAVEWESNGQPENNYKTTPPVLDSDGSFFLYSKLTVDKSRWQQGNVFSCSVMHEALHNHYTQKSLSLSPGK
chain: EVQLVETGGGLIQPGGSLRLSCAASGFTVSDNYMTWVRQAPGKGLEWVSVIFSGGNTYYADSVKGRFTISRDNAKNTLYLQMNSLRAEDTALYYCARRNYDDTRGTDVFDIWGQGTMVTVSSGGGGSEVQLVETGGGLIQPGGSLRLSCAASGFTVSDNYMTWVRQAPGKGLEWVSVIFSGGNTYYADSVKGRFTISRDNAKNTLYLQMNSLRAEDTALYYCARRNYDDTRGTDVFDIWGQGTMVTVSSASEPKSSDKTHTCPPCPAPEAAGGPSVFLFPPKPKDTLMISRTPEVTCVVVDVSHEDPEVKFNWYVDGVEVHNAKTKPREEQYNSTYRVVSVLTVLHQDWLNGKEYKCKVSNKALPAPIEKTISKAKGQPREPQVCTLPPSREEMTKNQVSLSCAVKGFYPSDIAVEWESNGQPENNYKTTPPVLDSDGSFFLVSKLTVDKSRWQQGNVFSCSVMHEALHNHYTQKSLSLSPGK
B2: PR002308 (bispecific antibody, human IgG1, lambda, L234A L235A)
light: B1 light
heavy: EVQLLESGGGLVQPGGSLRLSCAASGFTFSTYAMNWVRQAPGKGLEWVSRIRSKYNNYATYYADSVKDRFTISRDDSKSTLYLQMNSLRAEDTAVYYCVRHGNFGNSYVSWFAYWGQGTLVTVSSASTKGPSVFPLAPSSKSTSGGTAALGCLVKDYFPEPVTVSWNSGALTSGVHTFPAVLQSSGLYSLSSVVTVPSSSLGTQTYICNVNHKPSNTKVDKKVEPKSCDKTHTCPPCPAPEAAGGPSVFLFPPKPKDTLMISRTPEVTCVVVDVSHEDPEVKFNWYVDGVEVHNAKTKPREEQYNSTYRVVSVLTVLHQDWLNGKEYKCKVSNKALGAPIEKTISKAKGQPREPQVYTLPPCREEMTKNQVSLWCLVKGFYPSDIAVEWESNGQPENNYKTTPPVLDSDGSFFLYSKLTVDKSRWQQGNVFSCSVMHEALHNHYTQKSLSLSPGK
chain: EVQLVETGGGLIQPGGSLRLSCAASGFTVSDNYMTWVRQAPGKGLEWVSVIFSGGNTYYADSVKGRFTISRDNAKNTLYLQMNSLRAEDTALYYCARRNYDDTRGTDVFDIWGQGTMVTVSSRTGGGGSKLEVQLVETGGGLIQPGGSLRLSCAASGFTVSDNYMTWVRQAPGKGLEWVSVIFSGGNTYYADSVKGRFTISRDNAKNTLYLQMNSLRAEDTALYYCARRNYDDTRGTDVFDIWGQGTMVTVSSASEPKSSDKTHTCPPCPAPEAAGGPSVFLFPPKPKDTLMISRTPEVTCVVVDVSHEDPEVKFNWYVDGVEVHNAKTKPREEQYNSTYRVVSVLTVLHQDWLNGKEYKCKVSNKALGAPIEKTISKAKGQPREPQVCTLPPSREEMTKNQVSLSCAVKGFYPSDIAVEWESNGQPENNYKTTPPVLDSDGSFFLVSKLTVDKSRWQQGNVFSCSVMHEALHNHYTQKSLSLSPGK
B3: PR002328 (bispecific antibody, human IgG1, lambda, L234A L235A)
light: B1 light
heavy: B2 heavy
chain: EVQLVETGGGLIQPGGSLRLSCAASGFTVSSNYMTWVRQAPGKGLEWVSVIFSGGSTYYADSVKGRFTISRDNSKNTLYLQMNSLRAEDTAVYYCARRIAVAGHDVFDIWGQGTMVTVSSRTGGGGSGGGGSGGGGSGGGGSGGGGSKLEVQLVETGGGLIQPGGSLRLSCAASGFTVSDNYMTWVRQAPGKGLEWVSVIFSGGNTYYADSVKGRFTISRDNAKNTLYLQMNSLRAEDTALYYCARRNYDDTRGTDVFDIWGQGTMVTVSSASEPKSSDKTHTCPPCPAPEAAGGPSVFLFPPKPKDTLMISRTPEVTCVVVDVSHEDPEVKFNWYVDGVEVHNAKTKPREEQYNSTYRVVSVLTVLHQDWLNGKEYKCKVSNKALGAPIEKTISKAKGQPREPQVCTLPPSREEMTKNQVSLSCAVKGFYPSDIAVEWESNGQPENNYKTTPPVLDSDGSFFLVSKLTVDKSRWQQGNVFSCSVMHEALHNHYTQKSLSLSPGK
B4: PR002310 (bispecific antibody, human IgG1, lambda, L234A L235A)
light: B1 light
heavy: B2 heavy
chain: EVQLVETGGGLIQPGGSLRLSCAASGFTVSDNYMTWVRQAPGKGLEWVSVIFSGGNTYYADSVKGRFTISRDNAKNTLYLQMNSLRAEDTALYYCARRNYDDTRGTDVFDIWGQGTMVTVSSRTGGGGSGGGGSGGGGSGGGGSGGGGSKLEVQLVETGGGLIQPGGSLRLSCAASGFTVSDNYMTWVRQAPGKGLEWVSVIFSGGNTYYADSVKGRFTISRDNAKNTLYLQMNSLRAEDTALYYCARRNYDDTRGTDVFDIWGQGTMVTVSSASEPKSSDKTHTCPPCPAPEAAGGPSVFLFPPKPKDTLMISRTPEVTCVVVDVSHEDPEVKFNWYVDGVEVHNAKTKPREEQYNSTYRVVSVLTVLHQDWLNGKEYKCKVSNKALGAPIEKTISKAKGQPREPQVCTLPPSREEMTKNQVSLSCAVKGFYPSDIAVEWESNGQPENNYKTTPPVLDSDGSFFLVSKLTVDKSRWQQGNVFSCSVMHEALHNHYTQKSLSLSPGK
B5: PR002301 (bispecific antibody, human IgG1, lambda, L234A L235A)
light: B1 light
heavy: B2 heavy
chain: EVQLLESGGGLVQPGGSLRLSCAASGFTFSSYAMIWVRQAPGKGLEWVSGISESGGSTYYADSVKGRFTISRDNSKNTLYLQMNSLRAEDTAVYFCVKDLDDILTGYYKDYWGQGTLVTVSSRTGGGGSGGGGSGGGGSGGGGSGGGGSKLEVQLLESGGGLVQPGGSLRLSCAASGFTFSSYAMIWVRQAPGKGLEWVSGISESGGSTYYADSVKGRFTISRDNSKNTLYLQMNSLRAEDTAVYFCVKDLDDILTGYYKDYWGQGTLVTVSSASEPKSSDKTHTCPPCPAPEAAGGPSVFLFPPKPKDTLMISRTPEVTCVVVDVSHEDPEVKFNWYVDGVEVHNAKTKPREEQYNSTYRVVSVLTVLHQDWLNGKEYKCKVSNKALGAPIEKTISKAKGQPREPQVCTLPPSREEMTKNQVSLSCAVKGFYPSDIAVEWESNGQPENNYKTTPPVLDSDGSFFLVSKLTVDKSRWQQGNVFSCSVMHEALHNHYTQKSLSLSPGK
B6: PR002313 (bispecific antibody, human IgG1, lambda, L234A L235A)
light: B1 light
heavy: B2 heavy
chain: EVQLLESGGGLVQPGGSLRLSCAASGFTFSSYAMIWVRQAPGKGLEWVSGISESGGSTYYADSVKGRFTISRDNSKNTLYLQMNSLRAEDTAVYFCVKDLDDILTGYYKDYWGQGTLVTVSSRTGGGGSGGGGSGGGGSKLEVQLVETGGGLIQPGGSLRLSCAASGFPVSSNYMSWVRQAPGKGLEWVSVIFSGGRTYYADSVKGRFTISRDNSKNTLYLQMNSLRAEDTAVYYCARRNWIDGRDAFDIWGQGTMVTVSSASEPKSSDKTHTCPPCPAPEAAGGPSVFLFPPKPKDTLMISRTPEVTCVVVDVSHEDPEVKFNWYVDGVEVHNAKTKPREEQYNSTYRVVSVLTVLHQDWLNGKEYKCKVSNKALGAPIEKTISKAKGQPREPQVCTLPPSREEMTKNQVSLSCAVKGFYPSDIAVEWESNGQPENNYKTTPPVLDSDGSFFLVSKLTVDKSRWQQGNVFSCSVMHEALHNHYTQKSLSLSPGK
B7: PR002326 (bispecific antibody, human IgG1, lambda, L234A L235A)
light: B1 light
heavy: B2 heavy
chain: EVQLVETGGGLIQPGGSLRLSCAASGFTVSSNYMTWVRQAPGKGLEWVSVIFSGGSTYYADSVKGRFTISRDNSKNTLYLQMNSLRAEDTAVYYCARRIAVAGHDVFDIWGQGTMVTVSSRTGGGGSGGGGSGGGGSKLEVQLVETGGGLIQPGGSLRLSCAASGFTVSDNYMTWVRQAPGKGLEWVSVIFSGGNTYYADSVKGRFTISRDNAKNTLYLQMNSLRAEDTALYYCARRNYDDTRGTDVFDIWGQGTMVTVSSASEPKSSDKTHTCPPCPAPEAAGGPSVFLFPPKPKDTLMISRTPEVTCVVVDVSHEDPEVKFNWYVDGVEVHNAKTKPREEQYNSTYRVVSVLTVLHQDWLNGKEYKCKVSNKALGAPIEKTISKAKGQPREPQVCTLPPSREEMTKNQVSLSCAVKGFYPSDIAVEWESNGQPENNYKTTPPVLDSDGSFFLVSKLTVDKSRWQQGNVFSCSVMHEALHNHYTQKSLSLSPGK
B8: PR002898 (bispecific antibody, human IgG1, lambda, L234A L235A)
light: B1 light
heavy: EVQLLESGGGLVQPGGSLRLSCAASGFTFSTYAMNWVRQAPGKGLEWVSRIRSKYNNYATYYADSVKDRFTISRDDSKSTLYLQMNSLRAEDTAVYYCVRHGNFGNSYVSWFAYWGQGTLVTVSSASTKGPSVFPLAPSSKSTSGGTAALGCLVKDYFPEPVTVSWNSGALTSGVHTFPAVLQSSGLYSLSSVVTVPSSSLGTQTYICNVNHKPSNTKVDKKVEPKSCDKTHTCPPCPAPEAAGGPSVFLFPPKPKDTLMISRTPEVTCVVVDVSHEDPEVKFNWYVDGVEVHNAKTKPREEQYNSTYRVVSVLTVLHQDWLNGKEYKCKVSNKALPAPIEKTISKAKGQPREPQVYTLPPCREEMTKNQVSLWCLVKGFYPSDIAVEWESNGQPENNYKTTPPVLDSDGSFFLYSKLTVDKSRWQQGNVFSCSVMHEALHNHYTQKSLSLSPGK
chain: EVQLVETGGGLIQPGGSLRLSCAASGFTVSDNYMTWVRQAPGKGLEWVSVIFSGGNTYYADSVKGRFTISRDNAKNTLYLQMNSLRAEDTALYYCARRNYDDTRGTDVFDIWGQGTMVTVSSGSEVQLVETGGGLIQPGGSLRLSCAASGFTVSDNYMTWVRQAPGKGLEWVSVIFSGGNTYYADSVKGRFTISRDNAKNTLYLQMNSLRAEDTALYYCARRNYDDTRGTDVFDIWGQGTMVTVSSASEPKSSDKTHTCPPCPAPEAAGGPSVFLFPPKPKDTLMISRTPEVTCVVVDVSHEDPEVKFNWYVDGVEVHNAKTKPREEQYNSTYRVVSVLTVLHQDWLNGKEYKCKVSNKALPAPIEKTISKAKGQPREPQVCTLPPSREEMTKNQVSLSCAVKGFYPSDIAVEWESNGQPENNYKTTPPVLDSDGSFFLVSKLTVDKSRWQQGNVFSCSVMHEALHNHYTQKSLSLSPGK
B9: PR002950 (bispecific antibody, human IgG1, lambda, L234A L235A)
light: B1 light
heavy: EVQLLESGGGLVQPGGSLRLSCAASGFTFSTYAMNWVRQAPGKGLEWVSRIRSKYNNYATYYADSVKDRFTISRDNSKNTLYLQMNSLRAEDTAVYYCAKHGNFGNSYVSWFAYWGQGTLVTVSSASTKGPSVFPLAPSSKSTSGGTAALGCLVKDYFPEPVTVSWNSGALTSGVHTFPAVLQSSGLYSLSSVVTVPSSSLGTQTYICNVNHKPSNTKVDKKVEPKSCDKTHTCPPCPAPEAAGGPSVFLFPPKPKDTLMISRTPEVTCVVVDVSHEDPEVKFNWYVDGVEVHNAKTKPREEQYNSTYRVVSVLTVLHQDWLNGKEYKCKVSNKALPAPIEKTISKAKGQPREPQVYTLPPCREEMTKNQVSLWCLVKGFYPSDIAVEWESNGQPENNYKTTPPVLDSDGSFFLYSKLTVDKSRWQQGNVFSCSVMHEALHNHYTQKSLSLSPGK
chain: B1 chain

The binders below were run against T1, human BCMA (assay: FACS on NCI-H929 cells).

Row | Binder | EC50 | Maximum MFI
1 | B1 | 4.27 nM | 4360
2 | B2 | 1.82 nM | 63900
3 | B3 | 6.89 nM | 58900
4 | B4 | 2.09 nM | 61300
5 | B5 |  | 53000
6 | B6 | 17.1 nM | 78000
7 | B7 | 3.54 nM | 60000
8 | B8 | 1.94 nM | 3730
9 | B9 | 4.11 nM | 4190

These binders were tested against T1, human BCMA (assay: FACS on HEK293T/hBCMA cells, Experiment 2).
Experimental: This example is intended to investigate the binding activity of anti-BCMA HCAb antibodies to human and cynomolgus monkey BCMAs. […] Specifically, HEK293T/hBCMA cells and HEK293T/cyno BCMA cells were digested and resuspended in a DMEM complete medium. In addition, NCI-H929 cell suspension was collected. The density of each of the three cells was adjusted to 1×10⁶ cells/mL. […] The cells were incubated at 4° C. for 1 h away from light. Thereafter, the cells in each well were rinsed twice with 100 μL of pre-cooled PBS, and centrifuged at 500 g at 4° C. for 5 min, and then the supernatant was discarded. […] The cells in each well were rinsed twice with 100 μL of pre-cooled PBS, and centrifuged at 500 g at 4° C. for 5 min, and then the supernatant was discarded. Finally, the cells in each well were resuspended in 200 μL of pre-cooled PBS. Fluorescence signal values were read using a BD FACS CANTOII flow cytometer or an ACEA NovoCyte flow cytometer, and the data were processed and analyzed using FlowJo v10 (FlowJo, LLC) software. The data were processed and analyzed by plotting using GraphPad Prism 8 software, and binding curves of the antibodies to target cells, EC₅₀ values and other parameters were obtained through four-parameter nonlinear fitting.

Row | Binder | EC50 | Maximum MFI
10 | B1 | 0.767 nM | 15500
11 | B8 | 0.791 nM | 12600
12 | B9 |  | 22100

Each binder was assayed against T2, cynomolgus monkey BCMA (cynomolgus monkey, UniProt A0A2K5UD97 1-183) (assay: FACS on HEK293T/cyno BCMA cells).
T2 construct: whole, on cells; also called cyno BCMA
T2 sequence (A0A2K5UD97 entry or part of it): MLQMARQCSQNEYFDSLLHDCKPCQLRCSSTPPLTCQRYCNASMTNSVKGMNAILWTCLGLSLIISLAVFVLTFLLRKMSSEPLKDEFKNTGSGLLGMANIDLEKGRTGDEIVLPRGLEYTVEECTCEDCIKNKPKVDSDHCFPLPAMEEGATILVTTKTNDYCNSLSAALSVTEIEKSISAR

Row | Binder | Maximum MFI
13 | B1 | 15000
14 | B2 | 39300
15 | B3 | 7810
16 | B4 | 42000
17 | B5 | 13000
18 | B6 | 7610
19 | B7 | 6440
20 | B8 | 8190
21 | B9 | 26600

Reference: patent US20230322953A1 (HARBOUR BIOMED SHANGHAI, published 2023)
